The text below walks through data of patent US11406709B2, “Therapeutic and research application of PDCL3” (TRUSTEES OF BOSTON UNIVERSITY, priority 2014, dated 2022).

One assay relates to VEGFR-2. The experiment in a line: In vitro transcription/translation of VEGFR-2. It counts as biochemical. As to the method: FIG. 1A. HEK-293 cells expressing VEGFR-2 were transfected with different concentrations of C-terminus Myc-tagged PDCL3. After 48 hours cells were lysed and whole cell lysates (WCL) were blotted for VEGFR-2, PDCL3 and Hsp70 for loading control. Quantification of premature (newly synthesized and partially glycosylated VEGFR-2 corresponding to lower molecular weight) and mature (fully glycosylated) forms of VEGFR-2 is shown. Mean results of three independent experiments are shown. *P=0.04 and […]. FIG. 1B. Human umbilical vein endothelial cells (HUVECs) were transfected with control siRNA or PDCL3-siRNA. After 48 hours cells serum-starved for overnight followed by stimulation with VEGF for 10 minutes. Cells were lysed and whole cell lysates were blotted for phospho-Y1054-VEGFR-2, total VEGFR-2, PDCL3 and Hsp70 for loading control. FIG. 1C. Thermo-induced aggregation of VEGFR-2 was measured using PSA dye as described in the materials and method section. FIG. 1D. In vitro transcription/translation of VEGFR-2 in the absence or presence of exogenous recombinant PDCL3 was performed as described in the materials and method section and schematic of the procedure is shown. FIG. 1E. In vitro translated VEGFR-2 protein in the absence or presence of exogenous recombinant PDCL3 was blotted for VEGFR-2. FIG. 1F. […]

Assay [1] deals with VEGFR-1, CSF-1R and PDGFRβ. The experiment in a line: Cell-free protein synthesis, rabbit reticulocyte transcription/translation system. Type of assay: biochemical. The conditions noted are these: TNT Quick Coupled Transcription/Translation System. Here is the method:
FIG. 12A. Schematic of the experiment is shown. FIG. 12B. In vitro translation and transcription was performed as recommended by the manufacturer except in one group recombinant PDCL3 was added into reaction mixture.
To test whether PDCL3 also could increase expression of cell surface receptors in a cell-free protein synthesis system, we tested the effect of PDCL3 in rabbit reticulocyte system.

B1: recombinant PDCL3 protein: exogenous recombinant PDCL3 protein added to in vitro translation; purified GST-PDCL3 in aggregation assay (protein)
chain: MQDPNADTEWNDILRKKGILPPKESLKELEEEAEEEQRILQQSVVKTYEDMTLEELEDHEDEFNEEDERAIEMYRRRRLAEWKATKLKNKFGEVLEISGKDYVQEVTKAGEGLWVILHLYKQGIPLCALINQHLSGLARKFPDVKFIKAISTTCIPNYPDRNLPTIFVYLEGDIKAQFIGPLVFGGMNLTRDELEWKLSESGAIMTDLEENPKKPIEDVLLSSVRRSVLMKRDSDSEGD
modifications: left off: small tags and cut ends
notes: exogenous recombinant PDCL3 protein added to in vitro translation; purified GST-PDCL3 in aggregation assay
B1: the “yield of in vitro translated VEGFR-2” value with VEGFR-2 was “significantly increases the yield of in vitro translated VEGFR-2”. For the same molecule, the “expression of VEGFR-1, CSF-1R and PDGFRβ” value in assay [1] is “significantly increased expression of VEGFR-1, CSF-1R and PDGFRβ”.
